From IntAct's records for PubMed 25218436 come the findings set out here.

For test [1], the target named is cblb_human CBLB (UniProt Q13191).
Test [2] shares this target. The source holds these as a separate data set.
For test [3] the target is unchanged. The source holds these as a separate data set.
Test [4] shares this target. The source holds these as a separate data set.

Sequence of cblb_human CBLB (Q13191 whole entry): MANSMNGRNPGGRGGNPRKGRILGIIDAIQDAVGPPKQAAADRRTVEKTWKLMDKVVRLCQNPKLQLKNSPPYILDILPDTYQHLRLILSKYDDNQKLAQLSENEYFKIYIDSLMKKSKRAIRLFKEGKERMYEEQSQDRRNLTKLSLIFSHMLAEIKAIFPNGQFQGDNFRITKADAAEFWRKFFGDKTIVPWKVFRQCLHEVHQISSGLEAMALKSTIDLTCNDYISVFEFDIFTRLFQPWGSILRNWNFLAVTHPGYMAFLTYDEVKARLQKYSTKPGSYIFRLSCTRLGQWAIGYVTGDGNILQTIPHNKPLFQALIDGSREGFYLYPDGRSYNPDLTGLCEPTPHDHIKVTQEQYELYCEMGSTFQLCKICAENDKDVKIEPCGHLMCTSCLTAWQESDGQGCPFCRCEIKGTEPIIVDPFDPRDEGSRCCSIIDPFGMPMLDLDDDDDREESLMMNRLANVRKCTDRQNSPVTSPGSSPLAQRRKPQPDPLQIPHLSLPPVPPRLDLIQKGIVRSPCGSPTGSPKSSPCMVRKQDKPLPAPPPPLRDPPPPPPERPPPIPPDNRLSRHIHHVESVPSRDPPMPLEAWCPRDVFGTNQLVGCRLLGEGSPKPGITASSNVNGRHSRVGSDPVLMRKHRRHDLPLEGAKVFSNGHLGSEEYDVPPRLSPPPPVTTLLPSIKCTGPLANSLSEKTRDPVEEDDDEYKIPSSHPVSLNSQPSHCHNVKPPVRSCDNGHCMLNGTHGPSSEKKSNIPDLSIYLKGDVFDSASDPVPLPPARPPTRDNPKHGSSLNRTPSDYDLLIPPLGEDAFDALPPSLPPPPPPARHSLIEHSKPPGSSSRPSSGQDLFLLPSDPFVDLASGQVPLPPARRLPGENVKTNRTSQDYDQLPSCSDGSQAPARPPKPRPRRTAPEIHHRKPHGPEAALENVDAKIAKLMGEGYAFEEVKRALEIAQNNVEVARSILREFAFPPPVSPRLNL

As for “SH2/SH3 adapter protein NCK1 (Homo sapiens) (from UniProt P16333) W38K”, the “effect of a mutation on the interaction” value with cblb_human CBLB [1] is “disrupting interaction”. Take “SH2/SH3 adapter protein NCK1 (Homo sapiens) (from UniProt P16333) W38K;W143K;W229K”: the “effect of a mutation on the interaction” value with cblb_human CBLB [2] was “disrupting interaction”. For the substance “SH2/SH3 adapter protein NCK1 (Homo sapiens) (from UniProt P16333) W143K”, the “effect of a mutation on the interaction” value with cblb_human CBLB [3] is “disrupting interaction”. On to “SH2/SH3 adapter protein NCK1 (Homo sapiens) (from UniProt P16333) W229K”, for which the “effect of a mutation on the interaction” value with cblb_human CBLB [4] was “disrupting interaction”.
